How the values were obtained:
hsCCR6/mmECL1 = biological target: T1, hsCCR6/mmECL1 (human/mouse hybrid, UniProt P51684 1-374); assay: flow cytometry on transfected cells (Human Nter, Murine loop 1, Human loops 2 and 3), 10 µg/ml, PE-labelled secondary antibody
T1 construct: also called first mutant; pT1-hsCCR6/mmECL1
T1 chain: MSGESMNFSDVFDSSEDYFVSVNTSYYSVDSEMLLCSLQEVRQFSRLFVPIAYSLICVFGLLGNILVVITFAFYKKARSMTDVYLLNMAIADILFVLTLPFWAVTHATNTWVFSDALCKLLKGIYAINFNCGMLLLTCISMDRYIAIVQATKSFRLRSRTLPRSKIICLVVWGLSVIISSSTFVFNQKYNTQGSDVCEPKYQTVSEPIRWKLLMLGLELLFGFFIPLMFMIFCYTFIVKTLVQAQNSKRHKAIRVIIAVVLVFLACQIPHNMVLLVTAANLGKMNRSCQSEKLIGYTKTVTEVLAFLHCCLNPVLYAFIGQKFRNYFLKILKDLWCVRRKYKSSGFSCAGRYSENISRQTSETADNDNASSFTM
Description: (§1) Binding of the chimeric 4H11 antibody to human/mouse CCR6 hybrid constructs was evaluated by flow cytometry. Human/mouse CCR6 transfectants were counted and 2×10⁵ cells were incubated with 10 μg/ml of chimeric 4H11 antibody. Binding activity of 4H11 was detected with anti-human IgG-PE. To evaluate good expression of the human/mouse chimera on cells, two commercial antibodies directed against human and mouse CCR6 were used. Histogram plots show the geometric mean of fluorescence intensity (Y-axis) measured by flow cytometry
(§2) Binding of MAb to the surface of CCR6 transfected CHO cells was assessed using flow cytometry. 2×10⁵ cells were distributed in a 96 well V bottom plate and centrifuged for three minutes at 1300 rpm. Cells were collected and incubated with the appropriate mAb at a final concentration of 10 μg/ml in a volume of 50 μl in FACS buffer. Cells were incubated for 30 minutes on ice, washed twice and resuspended in 50 μl of PE-labelled secondary antibody diluted at 1/200 in FACS buffer. Cells were incubated for 15 minutes on ice, washed once, resuspended in 400 μl of FACS buffer and analyzed on the FACS instrument (Cyan, Beckman Coulter) in channel FL-2.

hsCCR6/mmECL2 = biological target: T2, hsCCR6/mmECL2 (human/mouse hybrid, UniProt P51684 1-374); assay: flow cytometry on transfected cells (Human Nter, only loop 2 drawn black as murine), 10 µg/ml, PE-labelled secondary antibody
T2 construct: also called second mutant; pT1-hsCCR6/mmECL2
T2 chain: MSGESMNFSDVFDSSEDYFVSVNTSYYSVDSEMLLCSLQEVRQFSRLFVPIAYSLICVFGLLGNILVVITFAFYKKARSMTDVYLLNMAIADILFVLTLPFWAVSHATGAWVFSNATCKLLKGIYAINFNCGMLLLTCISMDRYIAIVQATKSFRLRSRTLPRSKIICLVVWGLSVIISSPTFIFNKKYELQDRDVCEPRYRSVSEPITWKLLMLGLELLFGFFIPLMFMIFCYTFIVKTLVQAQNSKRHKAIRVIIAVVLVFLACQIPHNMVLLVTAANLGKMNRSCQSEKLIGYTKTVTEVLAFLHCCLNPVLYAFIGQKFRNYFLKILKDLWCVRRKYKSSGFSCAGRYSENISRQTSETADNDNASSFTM
Description: as §1, §2

mouse CCR6 = biological target: T3, mouse CCR6 (mouse, UniProt O54689 1-367); assay: not given; premise of the human/mouse hybrid mapping
T3 construct: also called mmCCR6; murine CCR6
T3 sequence: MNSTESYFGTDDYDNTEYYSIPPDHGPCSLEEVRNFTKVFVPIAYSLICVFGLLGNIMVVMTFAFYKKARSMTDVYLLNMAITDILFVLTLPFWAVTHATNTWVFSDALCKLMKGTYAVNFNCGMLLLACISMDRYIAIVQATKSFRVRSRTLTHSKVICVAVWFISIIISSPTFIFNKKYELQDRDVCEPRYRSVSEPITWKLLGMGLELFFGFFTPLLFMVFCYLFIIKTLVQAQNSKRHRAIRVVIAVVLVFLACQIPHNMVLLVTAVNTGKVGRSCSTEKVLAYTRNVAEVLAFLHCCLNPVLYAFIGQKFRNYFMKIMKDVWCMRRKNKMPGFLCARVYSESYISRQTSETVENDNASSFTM

hsCCR6/mmECL3 = biological target: T4, hsCCR6/mmECL3 (human/mouse hybrid, UniProt P51684 1-374); assay: flow cytometry on transfected cells (Human Nter, only loop 3 drawn black as murine), 10 µg/ml, PE-labelled secondary antibody
T4 construct: also called third mutant; pT1-hsCCR6/mmECL3
T4 chain: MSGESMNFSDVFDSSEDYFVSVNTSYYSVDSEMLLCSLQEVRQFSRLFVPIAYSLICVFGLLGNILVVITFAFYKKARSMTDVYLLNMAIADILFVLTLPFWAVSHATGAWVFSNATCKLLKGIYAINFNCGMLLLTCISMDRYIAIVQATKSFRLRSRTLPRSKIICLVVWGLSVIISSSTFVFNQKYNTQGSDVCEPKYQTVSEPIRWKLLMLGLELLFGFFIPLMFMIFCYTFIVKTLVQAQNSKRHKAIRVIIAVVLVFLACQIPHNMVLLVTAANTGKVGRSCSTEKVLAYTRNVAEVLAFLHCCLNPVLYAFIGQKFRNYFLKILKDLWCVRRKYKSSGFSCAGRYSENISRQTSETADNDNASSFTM
Description: as §1, §2

hsCCR6/mmN-term = biological target: T5, hsCCR6/mmN-term (human/mouse hybrid, UniProt P51684 36-374); assay: flow cytometry on transfected cells (Murine Nter, Human loops 1-3), PE-labelled secondary antibody
T5 construct: also called mutant 4; human CCR6 receptor containing a mouse N-terminal region
T5 chain: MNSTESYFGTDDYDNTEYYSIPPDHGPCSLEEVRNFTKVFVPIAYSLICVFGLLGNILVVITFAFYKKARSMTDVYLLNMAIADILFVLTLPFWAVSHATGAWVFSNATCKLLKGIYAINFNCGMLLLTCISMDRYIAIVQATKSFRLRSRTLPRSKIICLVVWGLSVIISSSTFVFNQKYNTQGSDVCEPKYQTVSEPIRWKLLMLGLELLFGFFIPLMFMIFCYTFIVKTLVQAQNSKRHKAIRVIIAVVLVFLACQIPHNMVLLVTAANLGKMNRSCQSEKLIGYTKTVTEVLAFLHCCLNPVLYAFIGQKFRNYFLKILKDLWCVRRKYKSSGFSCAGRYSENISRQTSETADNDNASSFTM
Description: as §1, §2

mmCCR6/hsN-term = biological target: T6, mmCCR6/hsN-term (human/mouse hybrid); assay: flow cytometry on transfected cells (Human Nter, Murine loops 1-3), 10 µg/ml, PE-labelled secondary antibody
T6 construct: also called mutant 5; mouse CCR6 receptor containing a human N-terminal region
T6 chain: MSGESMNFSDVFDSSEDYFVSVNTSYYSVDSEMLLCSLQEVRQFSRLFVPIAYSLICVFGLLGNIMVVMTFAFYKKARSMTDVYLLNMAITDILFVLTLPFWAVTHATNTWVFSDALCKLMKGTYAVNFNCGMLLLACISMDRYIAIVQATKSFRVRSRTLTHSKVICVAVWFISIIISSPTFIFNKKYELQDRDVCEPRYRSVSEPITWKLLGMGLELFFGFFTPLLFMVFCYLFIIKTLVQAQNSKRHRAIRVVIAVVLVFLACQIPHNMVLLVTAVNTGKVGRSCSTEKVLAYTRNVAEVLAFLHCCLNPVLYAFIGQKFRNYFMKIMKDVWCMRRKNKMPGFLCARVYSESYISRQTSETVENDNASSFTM
Description: as §1, §2

B1: chimeric 4H11 antibody (antibody, human IgG1, kappa, V domains shown)
VH: EVKLVESGGGLVQPGGSLKLSCATSGFSFSDYYMYWIRQTPEKRLEWVAYITNGGITYYPDTVKGRFTISRDNAKNTLYLQMSRLRSEDTAMYYCTSPLRGAWFAYWGQGTLVTVSS
VL: DVIMTQSPLSLPVSLGDQASISCRSSQSIVHSNGNTYLEWYLQKPGQSPKLLIYKVSNRFSGVPDRFSGSGSGTDFTLKISRVEAEDLGLYYCFQGSHVPLTFGAGTKLEIKR
notes: also called chimeric 4H11 mAb; 4H11 chimeric antibody
B1: binds (hsCCR6/mmECL1); binds (hsCCR6/mmECL2); no binding (mouse CCR6). B1: binds (hsCCR6/mmECL3); no binding (tested: 10 µg/ml) (hsCCR6/mmN-term); binds (mmCCR6/hsN-term).

Source: patent US20180086836A1 (GLENMARK PHARMACEUTICALS S A, published 2018)
